Substrate in the data set: NC(=O)C[C@H](N)C(=O)O
Description: purified protein. As to conditions: PBS pH 7.2, 37 °C, 1-200 mM asparagine.

B1: PtAsp2like1 (Picrophilus oshimae DSM 9789) (protein)
chain: MNVIMLHGGAGSTGVEQKLMEYAVKSKSGSALDSVCNAVVLMENDPCFNAGTGSCMRLDGSIQMDAAVMTSKGFGSVMAIENVKNPVLVARAVMERSPHLIMAGDGAEKFAHLLGFEKYDPSTERAAKRRENDISMILSRKIDSYNKMMETVDISKFVDTVGAVARVNGEFAAAVSTGGAPPMLRGRVGDSPVPGAGIFCGENGAVVATGVGEEIIKNMLCISIYNEIGRESLSKIVMKNISRFRYHAGVIAVSNEEYFAYSNTDMSYAALEF
As usually defined, the Km is the substrate concentration at which the rate is half of its maximum. The kcat is the number of substrate molecules converted per active site and unit of time at saturation. In the case of B1, the Km is given as 11.69 mM and the kcat is 0.056 s⁻¹.

Source of the values: PMC9670692.
